Measurements: patent US12410253B2, “Compositions comprising anti-NRP2 antibodies” (aTyr Pharma, Inc., priority 2019, dated 2025)
“Also recorded” adds a separate entry of the source.

T1: NRP2/FLT4(VEGFR3) (Homo sapiens, UniProt O60462)
T1 construct: The complete extracellular domain and transmembrane helices of NRP2a (version 2), NRP2b (version 5); expressed in transfected cells; host or cells: Expi293, transient co-transfection
T1 sequence (O60462 23-859 isoform O60462-3 limits assumed): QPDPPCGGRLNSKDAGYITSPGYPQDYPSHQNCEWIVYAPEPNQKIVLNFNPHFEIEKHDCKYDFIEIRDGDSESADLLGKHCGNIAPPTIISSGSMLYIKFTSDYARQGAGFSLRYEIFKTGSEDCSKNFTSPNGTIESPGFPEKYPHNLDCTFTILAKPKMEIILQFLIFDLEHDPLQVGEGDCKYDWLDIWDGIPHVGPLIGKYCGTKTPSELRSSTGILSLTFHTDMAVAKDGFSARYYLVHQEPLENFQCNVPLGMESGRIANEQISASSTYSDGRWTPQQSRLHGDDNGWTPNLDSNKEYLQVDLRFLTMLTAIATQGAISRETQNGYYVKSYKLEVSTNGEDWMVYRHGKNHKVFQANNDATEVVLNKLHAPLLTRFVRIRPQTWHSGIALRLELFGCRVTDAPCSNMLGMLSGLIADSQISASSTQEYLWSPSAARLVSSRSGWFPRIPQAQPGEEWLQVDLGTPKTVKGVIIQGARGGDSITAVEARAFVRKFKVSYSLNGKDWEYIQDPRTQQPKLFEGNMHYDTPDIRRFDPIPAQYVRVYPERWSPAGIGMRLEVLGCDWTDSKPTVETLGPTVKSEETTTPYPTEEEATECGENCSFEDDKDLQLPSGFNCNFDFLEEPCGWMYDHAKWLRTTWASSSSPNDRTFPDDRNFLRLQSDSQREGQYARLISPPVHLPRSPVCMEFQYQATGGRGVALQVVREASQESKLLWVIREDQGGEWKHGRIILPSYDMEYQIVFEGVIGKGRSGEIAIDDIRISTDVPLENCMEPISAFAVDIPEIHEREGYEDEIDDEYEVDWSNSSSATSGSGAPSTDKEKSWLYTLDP


Experiments:
Format in all cases: cell-based
NRP2/FLT4(VEGFR3) = molecular target: T1, NRP2/FLT4(VEGFR3); assay: Split-luciferase receptor dimerization assay, NRP2/FLT4 with VEGF-C; settings: antibody 100 nM; ligand induced dimerization
Description: To further extend the assessment of the biological activity of the anti-NRP2 antibodies, their activity was assessed in a receptor dimerization assay. In brief, vectors encoding a split luciferase pBiT1.1 and pBiT2.1 were obtained from Promega corporation (Madison, Wisconsin). The complete extracellular domain and transmembrane helices of NRP2a (version 2), NRP2b (version 5) (See table N1), FLT4 (VEGFR3), KDR (VEGFR2), and plexin A1 (PLXNA1) were cloned into the vectors and screened for optimal orientation, receptor density, and ligand induced dimerization, following established methods. Expi293 cells (Fisher) were transfected at 1 million cells/mL ˜20 hours prior to the assay with NRP2 and a co-receptor at equal mass amounts. Cells were counted, and 100,000 live cells were plated in a well of a white luminometer plate in Live Cell Imaging Solution (Fisher). Nano-Glo assay substrate (Promega) was added, and the plate was read on a Glomax 96 luminometer at room temperature to establish baseline luminescence. Antibodies were added to the well at 100 nM and the plate was again read to establish a new baseline and monitor the effects of the antibodies on spontaneous receptor dimerization. Depending on the receptor pair, typically 200 nM SEMA3F-p95 (aTyr Pharma), 2 nM VEGF-C(R&D Systems, Minnesota), or 2 nM VEGF165 (R&D Systems, Minnesota) were then added and the plate was again read to measure dimerization of receptors. Normalized responses for each individual well were calculated to the time point prior to addition of ligand, then normalized to no-antibody/no-ligand (baseline signal). Replicates were then processed to give average response and standard deviation. Results are summarized in Table E3 below, and shown graphically in FIGS. 3-10.

[1] = system: human lymphatic endothelial cell (HLEC); assay: HLEC migration toward VEGF-C (modified Boyden chamber, xCELLigence); settings: 191.5 pM VEGF-C, 24 hour period
Description: Migration assays were performed using a modified Boyden Chamber with […] pore size membrane, 16-well CIM plate (ACEA Biosciences.) Both sides of the membrane were coated with 5 μg/ml Fibronectin (Sigma) for 30 minutes at 37° C., 5% CO2. 160 μl of 191.5 pM VEGF-C or assay medium (0.1% BSA, ECM) was added to the lower chamber, the upper well attached, 50 ul assay medium added to the upper chamber before replacing the lid, and the plate was incubated for 1 hour at 37° C., 5% CO2 before baseline measurement was taken. HLECs were harvested, washed, and re-suspended in assay medium at 100,000 cells/well with aNRP2 antibody or control proteins and incubated for 30 minutes at 37° C., 5% CO2. Cells were added to the plate and incubated at room temperature for 30 minutes. Plate was inserted into xCELLigence RTCA DP (ACEA Biosciences) instrument, and migration was measured real-time every 5 minutes over a 24 hour period (2 wells per condition).

[2] = system: phospho-Akt levels in U251 glioblastoma cells; assay: Semaphorin 3F mediated inhibition of AKT phosphorylation in U251 cells; settings: antibody 10 μg/mL, 25 nM Sema3F 1 hour
Description: As shown schematically in FIG. 17, the treatment of cells with Sema3F should specifically block PI3K activity via NRP2 mediated interaction with plexin A1, thereby resulting in reduced phospho-Akt levels. To directly test the ability of the anti-NRP2 antibodies to block this effect, lysates were prepared following standard protocols (MesoScale Discovery, Phospho (Ser473)/Total Akt Assay Whole Cell Lysate Kit #K15100D). Serum starved and confluent U251 cells (Sigma, Cat. 09063001) were treated with 10 nM rapamycin (Sigma, Cat. 553211, 30 minutes), and blocking antibodies or controls were added (10 μg/mL, 30 minutes), followed by 25 nM Sema3F or serum free media for 1 hour in triplicate. Lysate protein concentrations were determined by BCA assay and samples were equalized to 0.4 mg/mL. Phospho and Total AKT were measured following the manufacturer's instructions and percent phosphorylation was calculated by dividing phosphorylated AKT relative units by total AKT relative units. Blocking of Sema3F for each antibody or control was determined by comparing percent phosphorylation of Sema3F treated cells to percent phosphorylation of non-Sema3F treated cells.

Molecule	effect on NRP2-VEGFR3 (FLT4) heterodimerization (in words) (NRP2/FLT4(VEGFR3))	migration of HLEC cells towards VEGF-C [1]	blocking of the Sema3F induced decrease in intracellular phospho-Akt levels [2]
aNRP2-11v7: humanized, affinity matured anti-NRP2 antibody, target domain b2; VH SEQ ID NO: 51, VL SEQ ID NO: 52 (antibody, V domains shown, Variable heavy chain region; Light chain variable region) VH: QVQLVQSGAEVKKPGASVKVSCKASGYTFTSFGISWVRQAPGQGLEWIGEIYPRSGNTYYNENFKGRATMTADKSTSTAYMELRSLRSDDTAVYYCARSSGYYGSTPFPYWGQGTLVTVSS VL: DIQMTQSPSSLSASVGDRVTITCRASQDISNYLNWYQQKPGKAVKLLIYYTSRLHSGVPSRFSGSGSGTDYTFTISSLQPEDIATYYCQQGNTLPWTFGGGTKVEIK	ability to inhibit	inhibited by both NRP2 antibodies to levels consistent with positive control antibodies; also recorded: effective block the migration of HLEC cells towards VEGF-C in a dose dependent manner	blocked the reduction in phospho-Akt levels; also recorded: block semaphorin 3F mediated inhibition of AKT phosphorylation; also recorded: can be blocked
aNRP2-10v10: humanized, affinity matured anti-NRP2 antibody, target domain b1, VEGF-C blocking; VH SEQ ID NO: 49, VL SEQ ID NO: 50 (antibody, V domains shown, Variable heavy chain region; Light chain variable region) VH: EVQLVQSGAEVKKPGATVKISCKVSGFNIKDYYVHWVQQAPGKGLEWMGRIDVEDDETKYAPKFQGRVTITADTSTDTAYMELSSLRSEDTAVYYCATPIYGAREAWFAYWGQGTLVTVSS VL: DIQMTQSPSSLSASVGDRVTITCTASSSVSSSYLHWYQQKPGKAPKLLIYRTSNLASGVPSRFSGSGSGTDFTLTISSLQPEDFATYYCHQYYRSPPTFGGGTKVEIK	potently inhibit	inhibited by both NRP2 antibodies to levels consistent with positive control antibodies; also recorded: effective block the migration of HLEC cells towards VEGF-C in a dose dependent manner	not blocked
